Experiments:
[1] = biological target: His-Cmr HTH- del195-244 (Mycobacterium tuberculosis H37Rv) (UniProt P9WMH5); assay: EMSA
[2] = biological target: His-Cmr HTH+ del217-244 (Mycobacterium tuberculosis H37Rv) (UniProt P9WMH5); assay: EMSA
[3] = biological target: His-Cmr (Mycobacterium tuberculosis H37Rv) (UniProt P9WMH5); assay: EMSA
[4] = biological target: His-Cmr (Mycobacterium tuberculosis H37Rv) (UniProt P9WMH5); assay: DNase I footprinting

Sequence of His-Cmr (Mycobacterium tuberculosis H37Rv) (P9WMH5 whole entry): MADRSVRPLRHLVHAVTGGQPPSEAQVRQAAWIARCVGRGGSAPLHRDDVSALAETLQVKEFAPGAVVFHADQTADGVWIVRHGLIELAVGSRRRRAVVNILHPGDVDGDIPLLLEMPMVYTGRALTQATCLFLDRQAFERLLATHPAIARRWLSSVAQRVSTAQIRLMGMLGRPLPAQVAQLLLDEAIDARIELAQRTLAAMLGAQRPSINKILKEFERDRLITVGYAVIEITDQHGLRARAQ
Sequence of His-Cmr HTH- del195-244 (Mycobacterium tuberculosis H37Rv) (P9WMH5 1-194): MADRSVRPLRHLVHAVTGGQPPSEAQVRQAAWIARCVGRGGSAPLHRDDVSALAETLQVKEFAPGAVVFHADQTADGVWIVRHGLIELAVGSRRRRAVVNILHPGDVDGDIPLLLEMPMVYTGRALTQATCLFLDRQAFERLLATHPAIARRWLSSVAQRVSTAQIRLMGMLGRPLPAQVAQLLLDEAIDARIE
Sequence of His-Cmr HTH+ del217-244 (Mycobacterium tuberculosis H37Rv) (P9WMH5 1-216): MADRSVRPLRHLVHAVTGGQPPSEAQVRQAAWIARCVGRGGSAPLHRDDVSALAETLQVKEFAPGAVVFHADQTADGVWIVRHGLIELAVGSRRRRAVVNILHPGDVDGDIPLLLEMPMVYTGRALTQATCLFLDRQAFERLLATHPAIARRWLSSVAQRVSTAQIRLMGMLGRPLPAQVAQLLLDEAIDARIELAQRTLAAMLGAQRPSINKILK

Sequence: ATCTCAACTATGTGGCCTTGTCCTTAGTCACCGCCGACGGACACACCCTGCTGCACCACCCGTATACCCAGAGCGAGGTGGACATCAAGAAGAACGTGTTCACGATGATGATGCGGCTACCGTGGTTGTATCGCGTTCCCGTACATACGATTCACAAATTTGGCCACATGCTCAGCGGCATGGCGATCCGGATCGTC (double strand) [2G5 full]
- binding [1]: no binding
- binding [2]: binds
- binding [3]: binds

Sequence: CGGACTGCTGCTGCTCGCCGTTGTCTCCGGTGATTGGGTTGCCCATACCTCCTGGGGCGCAGCGTGGTTCAGCTTGTCACCGGTGACACTGTGTTGGCTTCTCATCAGCTATGGCTTCGCAGCTTCGGTGCTGCCGGTGTGGCTGCTGCTCGCGCCACGCGACTACCTGTCAACGTTCATGAAGG (double strand) [1C1 full]
- binding [1]: no binding
- binding [2]: binds
- binding [3]: binds
- binding [4]: binds

Sequence: TAAAGTCACCGCCGGGGCCGATGTTCGCAGTCGCGGGCTCGGTGCCATCCATATCGTTGCGCAGCGCGATGCCGTGCCAATGCACCGACGTCGGATCACCCAGACGGTTGGTCACCGAGACGACAATCTCATCCCCGACGGTGGCCCGGATCAGTGGTCCGGGGATGGTGTTGCCGTAGGTCAGCGTGCTGACGATCGGCCCACCCAGGTCGATCCTCGCCGGCTGGGGGGTCAGCGTGGCGGTAACCGTTCGCCCACTGTGCGGCCGGGCCGCCTCGGCCGCGTCGATTGCAGCGGT (double strand) [Rv0846c]
- binding [3]: binds

Sequence: TCTATGGCGGCCAGGGACGCACATTGTGGGCTTCGGGGTAATTGTCTTGGGTTGGCTGCCCCGCGCTGCACAGGGTTACTGGCCCAGGAGGCGGACGTCATCGTGTTAACACCCGTCGGGATAACCTGGGAGCGGCGCAGCCAAGGAAGGAACCAACCGTCCGGTGTCAGACCTAGCCAGAACCGACGTCGTGCTGATC (double strand) [2C5 full]
- binding [1]: no binding
- binding [2]: binds
- binding [3]: binds

Reference: publication PMC4705688
